Test results from the nanobody polyreactivity screen of Harvey et al. (2022).

Experiment: yeast display, Sf9 membrane polyspecificity reagent, FACS + sequencing; frameworks hold sequencing errors
Procedure, shortened: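 Galactose-induced (36–48 hours) yeast carrying a synthetic nanobody display library were exposed to 10% biotinylated, detergent-solubilized Sf9 membrane reagent at 4 °C for 1 hour. FACS followed streptavidin microbead enrichment, using low and high (top ~1%) gates for expression (anti-HA) and reagent binding (streptavidin). Colony PCR, MiSeq 2 × 250 sequencing and CDR-length filtering followed. Labels for polyreactivity reflect the gate of origin.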

Sequence | polyreactivity (PSR sort gate)
QVQLVESGGGLVQAGGSLRLSCAASGRIFRRNAMGWYRQAPGKEREFVATITSGGSTFYADSVKGRFTISRDNAKNTVYLQMNSLIPEDTAVYYCAAPYYNTPFHTPNYSWGQGTQVTVSS | low polyreactivity
QVQLVESGGGLVQAGGSLRLSCAASGSIFRVYAMGWYRQAPGKEREFLAAITTRGGSTYYADSVKGRFTISRDNAKNTVYLQMNSLKPEDTAVYYCAARGWVSAYYGYDYWGQGTQVTVSS | high polyreactivity
QVKLVESGGGLVQAGGSLRLSCAASGRIFYGYTMVWYRQAPGKERELVAAISSSGGSTYYADSVKGRFTISRDNAKNTVYLQMISLKPEDTAVYYCAAYVPYSPYHVEFNYWGQGTQVTVSS | high polyreactivity
QVQLVDSGGGLVQAGGSLRLSCAASGRIFELYAMGWNTQATGKDRELVAVITNGGSTYYADSVKGRFTISRDNAKNTVYLQLNSLKPEDTAVYYCNGRRGYNRVGGSYGYWGQGTQVTVSS | low polyreactivity
QVQLVESGGGLVQAGGSLRLSCAASGSTYRPYAMGWYRQAPVKERELVAAISWSGGRTYYADSVKGRFTISRDNAKNNVYLPMNSLKPEDTAVYYCNRAGRQPKNTYDYWGQGTQVTVSS | high polyreactivity
QVQLVESVGGLVQAGGSLRLICAASGRTFRGYAMGWYRQAPGKERELVAAISSSGGRTYYADSVKGRFTISRDNAKNTVYLQMNSLKPEDTAVYYCAAAVTLSPAQYGYWGQGTQVTVSS | high polyreactivity
QVQLVESGGGLVQAGGSLRLSCAASGRIFGPYTMGWYRQAPGKERELVARISRRGGSTYYADSVKGRFTISRDNAKNTVYLQMNSLKPEDTAVYYCARSQAVYDGWFAKFGYWGQGTQVTVSS | low polyreactivity
HVQLVESGGGLVQAGGSLRLSCAASGRIFWYYTMGWSRQAPGKERELVASINSDSGTYYADSVKGRFTISRDNAKNTVYLQMNRLKPEDTAVYYCTRDSESDANTFTTSGIDEPYDYWGQGTQVTVSS | low polyreactivity
QVQLVESGGGLVQAGGSLRLSCAASGRIFAKYAMGWYRQAPGKERELVAAISWGGGSTYYADSVKGRFTISRDNAKNTVYLQMNSLKPEDTAVYYCARRFKYGSTAWRFYYWGQGTQVTVSS | high polyreactivity
QVQLVESGGGLVQAGGSLRLSCAASGRIFGWYAMGWYRQAPGKERELVAAISNDGSTNYADSVKGRFTISRDNAKNTVYLQMNSLKPEDTAVYYCAARFYRSSYGWYGYWGQGTQVTVSS | high polyreactivity
QVQLEESGGGLVQAGGSLRLSCAASGRLFGDNAMGWYSQAPGKERELVAAISDSGGSTYYADSVKGRFTISRDNAKNTVYLQMNSLKPEDTAVYYCAAEYIVRWYWYYYWGQGTQVTVSS | high polyreactivity
QVQLVESGGGLVQAGGSLRLSCAASGSIYDSYDMGWYRQAPGKERELVAAITSGGSTNYADSVKGRFTISRDNAKITVYLQMNSLKPEDTAVYYCAAYYWYPVYYGYDYWGQGTQVTVSS | low polyreactivity
QVQLVESGGGLVQAGGSLRLSCAASGRTFYRNAMGWYRQAPGKERELVAAISRSGGRTYYADSVKGRFTISRDNAKNTVYLQMNSLKPEDTAVYYCNAQPTLAVADYDYWGQGTQVTVSS | high polyreactivity
AVQLVESGGGLVQAGGSLRLSCAASGSTCTGMTWDGRHRRLGRKELVAGIRSAGSTNYADSVKGRFTISGDNAKITVYLQLNSLKPEDTAVYYCAKDYRWVWRKYGYWGQGTQVTVSS | low polyreactivity
QVQLVESGGGLVQAGGSLRLSCAASGRTYTFNTMGLSRQAPGKEREWVAAIDGDGTTNYADSVKGRFTISRDNAKNTVYLQMNSLKPEDTAVYYCAADFLYSFWYEPTFDYWGQGTQVTVSS | low polyreactivity
QVQLVESGGGLVQAGGRLRLNCAASVITFPYNAMGWYRQATGKERELVAAITRSGASTYYADSVKGRFTISRDNSKNTVYVQMNSLKPEDTAVYYCAAKVIGRPRPYYYWGQGTQVTVSS | high polyreactivity
QVQLGESGGGVVQAGVSLRLSCAASGSTFTLYAMGWYRQAPGKERELVAAINGAGSTYYADSVKGRFTISRDNAKNTVYLQMNSLKPEDTAVYYCAKDLKYGWSDYWGQGTQVTVSS | low polyreactivity
QVQLVESGGGLVQAGGSLRLSCAASGRIFGYNAMGWYRQAPGKERELVAVITYSGGSTYYADSVKGRFTISRDNAKNTVYLQMNSMIPEDTAVYYCAADYQPYSYFWQGGTRDMDYWGQGTQVTVSS | low polyreactivity
QVQLVESGGGLVQAGGSLRLICAASGRTYHYYTLGWYRQSPGKERELVARISLGVGSTYYADSVKGRFTISRDNAKNTVDLQMYTLIPEDTAVYYCNAVWYKSFVKGVYGRVDWGQGTQVTVSS | low polyreactivity
QVQLVESGGGLVQAGGSLRLSCAASGRIFNPYAMGWYRKAPGKERELVAAISRGGRTYYADSVKGRFTISRDNAKNTVYLQMNSLKPEDTAVYYCAKLPSRRWAYDYWGQGTQVTVSS | high polyreactivity
QVQLVESGGGLVQAGGSLRLSCAASGRILGAYAMGWYRQPPGKERELVASISSGGRTYYADSVKGRFTISRDNAKNTVYLQMNSLKPEATAVYYCAKKKQLSVPASGYDYVYYWGQGTQVTVSS | high polyreactivity

Sequence | polyreactivity (PSR sort gate)
QVQLVESGGGLVQAGGSLRLSCAASGSIFDLYAMGWYRQAPGKERELVAAINSGGSTYADSVKGRFTISRDNSKNTVYLQMNSLKPEDTAVYYCNADYRHSLGSGYDYWGQVTQVTVSS | low polyreactivity
QVQLVESGGGLVQAGGSLRLSCAASGFTFRSNVMGWYRQATGKERELVAAISWSGGSTYYADSVKGRFTISRDNAKNNVYLQMNSLKPEDTAVYYCATVQVVGPWSYRKLDYWGQGTQVTVSS | high polyreactivity
QVQLVESGGGLVQAGGSLRLSCAASGSTFYDYAMGWYRQAPGKERELVASITTGGDSTYYADSVKGRFTISRDNAKNTVYLQMNSLKPEDTAVYYCNADWYYWISNYQGAPEMDYWGQGTQVTVSS | high polyreactivity
QVQLVESGGGLVQAGGSVSLSCAASGTFSPYAMGWYRQAPGKERELVADITSNTGRTYADSVKGRFTISRDNAKNTVYLKMNSLKPEDTSVYYCNTYGSGTHSSGYDYWGQGTQVTVSS | low polyreactivity
QVQLVESGGGLVQAGGSLRLSCAASGSIFYDNAMGWYRQAPGKERELVAAIRGRGGSTYYADSVKGRFTISRDNAKNTVYLQMNSLKPVDTAVYYCAAERPIAVVRYYTYYYWGQGTQVTVSS | high polyreactivity
QVQLVESGGGLVQAGGSLRLSCAASGSIFGYYAMGWYRQAPGKERELVAAISRGGRTNYADSVKGRFTISRDNAKNTVYLQMNSLKPEDTAVYYCAAESYRAYKYDYWGQGTQVTVSS | low polyreactivity
QVQLVESGGGLVQAGGSLRLSCAASGYIFNKYVMGWYRQAPGKERELVAAISASGGSTYYADSVKGRFTISRDNAKNTVYLQMNSLKPEDTAVYYCAATLYRRMDYWGQGTQVTVSS | high polyreactivity
QVQLVESGGGLVQAGGSLRLSCAASGRIFGPYTMGWYRQAPGKERELVAAISWSGGSTYYADSVKGRFTISRDNAKNTVYLQMNSLKPEDTAVYYCNADHPFPQYEGGSWGQGTQVTVSS | low polyreactivity
QVQLVESGGGLVQAGGSLRLSCAASGRIFDSYAMGWYRQAPGKERELVAVISNNDGTTYYADSVKGRFTISRDNAKTTVYLQMNSLKPEDTAVYYCNAVYSSGVDGSEGFDYWGQGTQVTVSS | low polyreactivity
QVQLVESGGGLVQAGGSLRLSCAASGFTFSSYDMGWYRQAPGKERELVAAISRSGGSTYYADSVKGRFTISRDNAKNTVYLQMNCLKPEDTAVYYARAKYSRVTLYQGYGYWGQGTQVTVSS | high polyreactivity
QVQLVESGGGLVQAGGSLRLSCAASGSTFVNYVMGWYRPAPGKERELVAAISRRGTSTRYADSVKGRFTISRDNAKNTVYLQMNSLKPEDTAVYYCAATRYVGVTGYGYWGQGTQVTVSS | high polyreactivity
QVHLVESGGGLVQAGGSLRLSCAASGRLFFYALGWYRQSPRKERELVAAISWSGGSTYYADSVKGRFTISRDNAKNTVYLQMNSLKPEDTAVYYCAADYEGWGYDYRGDYWGQGTQVTVSS | low polyreactivity
QVQLVESGGGLVQAGGSLRLSCAASGFIFGYYVMGWYRQAPGKERELVAAISGSGGRTYYADSVKGRFTISRDNAKNNVYLQMNSLKPEDTAVYYCNAVAFYRDYNYWGQGTQVTVSS | high polyreactivity
QVQLVESGGGLVQAGGSLRLSCAASGLIFVANAMGWYRQAPGKERELVAAISRSGGITYYADSVKGRFTISRDNAKNTVYLQMNSLKPQDTAVYYCAKTLPSNGHYDYWGQGTQVTVSS | low polyreactivity
QVQRVDSGGGLVQAGGSLRLSCAASGITFTLYDMGWYRQAPGKERELVASITSDGSTDYADSVKGRFTISRDNAKNTVYLQMISLKPEDTAVYYCNARVTYSWYRFGRSGDDSWGQGTQVTVSS | low polyreactivity
QVQLVESGGGLVQEGGSLRLSCAASGIIFRVYAMGWYRQAPGKERELVATITYSGGITYYADSVKGRFTISRVNAKNTVYLQMNSLKQEDTAGYYPIGVGGDYDYWGQGTQVSVSS | low polyreactivity
QVQLVESGGGLVQAGGSLRLSCAASGSIFYFYARGWYRLAPGKERELVAAIRFTGGTTYYADSVKGRFTISRDNAKNTVDLQMNSLKPEDTADYYCAKQTSYWSRGFDYWGQGTQVTVSS | low polyreactivity
QVQLVESGGGLVQAGGSLRLSSAASGSIFRNAMGWYRQAPGKERELVAGINGSGGSTYYADSVKGRFTISRDNAKNTVYLQMNSLKPEDTAVYYCAAGTSKPTPIYGYWGQGTQVTVSS | low polyreactivity
HVQLVESGGGLVQEGGSLRLSCAASGSILNQNAMGWYRQARGKERELVASISWDGDRTYYADSVKGRFTISRDNAKNTVYLQMNSLKPEDTAVYYCAASFYGIDRMGYWGQGTQVTVSS | low polyreactivity
QVQLVESVGGLVQAGGSLRLSCAASGRTCGYKAMGWYRQAPGKERQLVAAISRGGSTNYADSVKGRFTISRDNAKNSVYLQMNSLKPEDTAVYYCAKTIRAYRPSRTAYRLDYWGQGTQVTVSS | high polyreactivity
